This note sets out measurements from PMC7118729.

The term stoichiometry N denotes a count of units in the complex or per binding partner.

The assay concerns the target SARS-CoV non-structural protein 15 (Nsp15) [change] (SARS-CoV). Description: SEC.

For “SARS-CoV non-structural protein 15 (Nsp15) [change] (enzyme)”, the stoichiometry N came out at 3.
